Where a chain is given by its changes, count along the chain named.
Assays:
[1] = target: NStr-M35_S, short M35 (aa 2 to 452) with N-terminal Twin-Strep tag and TEV site (murine cytomegalovirus (MCMV)); assay: SEC-MALS; 100 μg protein on Superdex 200 Increase 10/300 in 50 mM Tris pH 7.4, 10% glycerol, 250 mM NaCl, 1 mM DTT
M35_S [2] = target: T1, M35_S (murine cytomegalovirus (MCMV) strain …, UniProt D3XDM4 2-452); assay: EMSA; conditions: protein: recombinant; tags: N-terminal Twin-Strep tag removed by TEV (GS remnant likely); chain copies: 2; label: 5'-biotin on both strands; 5' overhang 1 nt each end, 56 bp
T1 sequence: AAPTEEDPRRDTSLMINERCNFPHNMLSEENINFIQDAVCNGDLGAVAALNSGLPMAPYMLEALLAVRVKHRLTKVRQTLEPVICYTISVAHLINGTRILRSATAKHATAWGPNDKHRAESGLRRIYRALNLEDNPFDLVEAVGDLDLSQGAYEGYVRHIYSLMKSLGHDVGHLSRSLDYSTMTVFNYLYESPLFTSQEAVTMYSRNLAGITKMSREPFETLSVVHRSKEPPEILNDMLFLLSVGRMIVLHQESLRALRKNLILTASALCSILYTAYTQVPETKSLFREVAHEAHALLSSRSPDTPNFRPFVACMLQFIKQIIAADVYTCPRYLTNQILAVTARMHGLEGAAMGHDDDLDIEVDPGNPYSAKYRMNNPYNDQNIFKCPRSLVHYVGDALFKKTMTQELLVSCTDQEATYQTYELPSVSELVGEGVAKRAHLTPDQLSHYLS

M35_S [3] = target: T1, M35_S; assay: EMSA; 1 uM M35_S; conditions: protein: recombinant; tags: N-terminal Twin-Strep tag removed by TEV (GS remnant likely); chain copies: 2; label: 5'-biotin on both strands; 5' overhang 1 nt each end, 56 bp
M35_S [4] = target: T1, M35_S; assay: EMSA; Hill coefficient 2.775; conditions: protein: recombinant; tags: N-terminal Twin-Strep tag removed by TEV (GS remnant likely); chain copies: 2; label: 5'-biotin on both strands; 5' overhang 1 nt each end, 56 bp
M35_S [5] = target: T1, M35_S; assay: EMSA; 0.1-10 uM M35_S; second complex at 10 uM; conditions: protein: recombinant; tags: N-terminal Twin-Strep tag removed by TEV (GS remnant likely); chain copies: 2; label: 5'-biotin on both strands; 5' overhang 1 nt each end, 56 bp

How did the stoichiometry N [1] turn out when “NStr-M35_S, short M35 (aa 2 to 452) with N-terminal Twin-Strep tag and TEV site (domain or fragment)” was run?
The stoichiometry N was 2.

B1: Bio-scrambled (ScrHIFNb) (dsDNA)
DNA 1: ATAAGAGAACTAAGCGGAATAAGTAAGAGATGATCGGATTAGTCGCTAAGAATGAGA
DNA 2: TTCTCATTCTTAGCGACTAATCCGATCATCTCTTACTTATTCCGCTTAGTTCTCTTA
Does B1 bind (M35_S [2])?
Result: no binding

B2: Bio-hIFNb 15-38 (dsDNA)
DNA 1: ATATAAGACGGAATAAACTGAAAGGGAGAAGTGAAAGTGACATGCTACGGAATGAAT
DNA 2: AATTCATTCCGTAGCATGTCACTTTCACTTCTCCCTTTCAGTTTATTCCGTCTTATA
Does B2 bind (M35_S [3])?
Result: binds

B3: Bio-mIFNb (murine IFN-b enhancer) (dsDNA)
DNA 1: AAAATGACAGAGGAAAACTGAAAGGGAGAACTGAAAGTGGGAAATTCCTCTGAGGCA
DNA 2: CTGCCTCAGAGGAATTTCCCACTTTCAGTTCTCCCTTTCAGTTTTCCTCTGTCATTT
B3 was tested. Which Kd (M35_S [4]) did it give?
The Kd was 2060 nM.

B4: Bio-hIFNb (human IFN-b enhancer) (dsDNA)
DNA 1: B3 DNA 1 with A1T, G10T, C31G, G54A, G55T, C56A, A57G
DNA 2: B3 DNA 2 with C1A, T2C, G3T, C4A, C5T, G28C, C49A
Does B4 bind (M35_S [5])?
Result: binds

B5: Bio-hIFNb 1-38 (dsDNA)
DNA 1: TAAATGACATAGGAAAACTGAAAGGGAGAAGTGAAAGTGACATGCTACGGAATGAAT
DNA 2: AATTCATTCCGTAGCATGTCACTTTCACTTCTCCCTTTCAGTTTTCCTATGTCATTT
Does B5 bind (M35_S [3])?
Result: binds

— article PMC10308904, “The Cytomegalovirus M35 Protein Directly Binds to the Interferon-β Enhancer and Modulates Transcription of Ifnb1 and Other IRF3-Driven Genes”
